Data from the Human Domainome abundance scans (Beltran et al. 2025).

B1: KAT8 regulatory NSL complex subunit 2, residues 28 to 91; numbered along this chain, Q9H9L4 (parent)
chain: CAFTHRPCSHPRLEGQEFCIKHILEDKNAPFKQCSYISTKNGKRCPNAAPKPEKKDGVSFCAEH

Variants of: B1
Assay: abundance fitness (aPCA) (normalised: wild type 0, dead -1); higher = more abundant; growth selection in yeast, the domain comes from the species named
Details: Homo sapiens

Abundance fitness of substitutions, site by site:
E25: W -0.131 | P -0.356 | Y -0.05 | R -0.099 | V -0.069 | T -0.127 | S -0.111
A29: R -0.167 | P -0.225 | V -0.196 | Q -0.278 | T -0.133 | I -0.358 | H -0.208 | G -0.128 | W -0.422 | N -0.22 | D -0.225 | L -0.217 | E -0.308 | S -0.048 | K -0.186 | M -0.204 | Y -0.287 | C -0.151
G42: R -0.038 | H -0.141 | W -0.246 | Y -0.094 | F -0.22 | T -0.055 | Q -0.008 | C -0.105 | S -0.063 | M -0.139 | L -0.125 | E -0.005 | K 0.051 | D -0.092 | P -0.1 | I -0.206 | N -0.117 | A -0.053 | V -0.108
Q33: D -0.238 | V -0.03 | T 0.017 | S -0.182 | N -0.11 | M -0.062 | G -0.142 | Y -0.071 | A 0.011 | I -0.124 | P -0.036 | L 0.004 | C -0.255 | F -0.217 | R -0.081 | K -0.05 | E -0.049
P30: T -0.184 | G -0.074 | Q -0.279 | F -0.368 | V -0.256 | E -0.251 | L -0.188 | S -0.136 | I -0.162 | R -0.198 | H -0.253 | K -0.156 | Y -0.335 | N -0.178 | D -0.155 | A -0.205 | W -0.514 | C -0.275 | M -0.261
C34: A -0.446 | F -0.664 | R -0.578 | N -0.33 | H -0.453 | M -0.542 | P -0.346 | G -0.339 | W -0.674 | Q -0.41 | Y -0.604 | K -0.484 | T -0.71 | I -0.56 | S -0.321 | V -0.541 | E -0.185
K43: P -0.072 | H -0.063 | D -0.04 | G -0.144 | Q -0.057 | E -0.044 | V -0.074 | R -0.055 | C -0.141 | N 0.027 | W -0.141 | Y -0.052 | M -0.203 | T -0.028 | F -0.172 | A -0.117 | S -0.042 | I -0.181 | L -0.101
S38: V -0.024 | Y -0.065 | C -0.026 | N -0.122 | L -0.076 | F -0.038 | W -0.076 | R -0.06 | M -0.159 | G -0.048 | T -0.104 | H -0.111 | E -0.059 | I -0.348 | P -0.028 | K -0.084 | A -0.002 | Q -0.08
N41: H -0.115 | G -0.03 | T -0.195 | W -0.171 | Y -0.365 | E -0.005 | F -0.086 | Q -0.098 | M -0.079 | C -0.161 | L -0.09 | V -0.031 | R -0.06 | S -0.052 | K 0.019 | P -0.13 | A -0.058
Y36: K -0.015 | Q -0.078 | C -0.173 | L -0.156 | I -0.131 | R -0.055 | G -0.085 | H -0.016 | D -0.162 | T -0.054 | A -0.096 | W -0.122 | E -0.183 | V -0.129 | M -0.216 | F -0.015 | P -0.298 | N -0.157 | S -0.06
F31: S -0.179 | G -0.1 | L -0.188 | Y -0.195 | H -0.261 | P -0.183 | I -0.391 | V -0.248 | T -0.21 | R -0.203 | A -0.197 | K -0.195 | W -0.116 | M -0.175 | N -0.323
K32: E -0.026 | N -0.073 | D -0.136 | A -0.075 | F -0.305 | S -0.093 | C -0.146 | R -0.041 | T -0.177 | Y -0.194 | P -0.211 | I -0.135 | H -0.185
N28: G -0.11 | H -0.028 | A -0.118 | S -0.006 | Q -0.069 | D -0.252 | E -0.07 | V -0.121 | K -0.1 | T -0.031 | R -0.049 | F -0.083 | M -0.107 | L -0.093 | P -0.215 | C -0.142 | W -0.312
S35: N -0.117 | D -0.057 | E -0.014 | T -0.104 | G -0.047 | F -0.012 | A -0.04 | V -0.031 | I -0.177 | R -0.105 | K -0.046 | Y -0.113 | Q -0.103 | W -0.169 | H -0.333 | C 0.003 | L -0.14 | P -0.177
I37: T 0.038 | L -0.044 | C -0.032 | E -0.042 | W -0.127 | S -0.061 | G -0.022 | H 0.039 | N -0.042 | P -0.142 | A -0.177 | Y -0.137 | D -0.302 | R -0.045 | M 0.046 | K -0.107 | Q -0.031
D26: M -0.195 | T -0.069 | R -0.175 | K -0.177 | I -0.072 | Q -0.18 | G -0.197 | F -0.245 | S -0.117 | W -0.347 | V -0.16 | E -0.157 | Y -0.223 | A -0.084 | C -0.097 | N -0.081
T39: F -0.105 | S -0.112 | W -0.57 | V -0.097 | M -0.165 | H -0.091 | Y -0.237 | N -0.049 | L -0.209 | R -0.105 | E 0.003 | P -0.207 | I -0.123 | K -0.087 | A -0.13 | C -0.205 | D -0.101
K40: D -0.14 | S -0.299 | Y -0.052 | W -0.401 | L 0.184 | G -0.196 | F -0.037
R44: D -0.102 | C -0.026 | W -0.112 | G -0.027 | K -0.071 | F -0.144 | E -0.139 | H -0.051 | P -0.067 | M -0.04 | S -0.038 | N -0.014 | Q 0.005 | T -0.029
C45: L -0.441 | R -0.635 | S -0.378 | M -0.438 | A -0.459 | P -0.561 | G -0.427 | F -0.609 | H -0.581 | I -0.594 | E -0.193 | N -0.398
K27: A -0.019 | M -0.269 | P -0.091 | R -0.12 | C -0.194 | W -0.215 | V -0.104 | F -0.3 | H -0.094 | N -0.044 | S -0.093 | G -0.191 | Y -0.202 | D -0.172 | E -0.079 | L -0.158 | Q -0.149 | I -0.091
